From PMC9482650, “Quantitative fragmentomics allow affinity mapping of interactomes” (Nature Communications, 2022)
Values belong to the binder of their own block, whether it stands above or below them.

Key:
Assay in all cases: holdup assay
Parameters in all cases: key: below the threshold = too weak to quantify, mostly under pKd 3.1 to 4
[1] = biological target: T1, MPDZ_10, O75970
T1 sequence (O75970 1624-1722, limits assumed, looked up): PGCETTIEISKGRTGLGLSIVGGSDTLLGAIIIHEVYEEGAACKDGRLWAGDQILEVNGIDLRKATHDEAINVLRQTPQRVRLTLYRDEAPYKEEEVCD

[2] = biological target: PICK1, Q9NRD5
Chain of PICK1, Q9NRD5 (Q9NRD5 17-115): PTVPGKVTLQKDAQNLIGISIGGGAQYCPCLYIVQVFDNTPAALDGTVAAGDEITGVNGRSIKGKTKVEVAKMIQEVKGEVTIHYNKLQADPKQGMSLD

[3] = biological target: MAGI2_6, Q86UL8
Chain of MAGI2_6, Q86UL8 (Q86UL8 1141-1229): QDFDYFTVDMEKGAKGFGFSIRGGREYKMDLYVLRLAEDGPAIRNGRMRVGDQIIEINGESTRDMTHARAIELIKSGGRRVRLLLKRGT

[4] = biological target: DLG4_3, P78352
Chain of DLG4_3, P78352 (P78352 306-403): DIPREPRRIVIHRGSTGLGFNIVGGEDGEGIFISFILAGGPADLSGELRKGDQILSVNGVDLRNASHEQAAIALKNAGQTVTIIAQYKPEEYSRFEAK

[5] = biological target: T2, NHERF3_3, Q5T2W1
T2 sequence (Q5T2W1 238-333, limits assumed, looked up): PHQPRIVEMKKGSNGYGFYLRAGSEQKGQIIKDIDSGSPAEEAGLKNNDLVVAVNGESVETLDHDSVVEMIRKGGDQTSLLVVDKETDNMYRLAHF

[6] = biological target: T3, LIN7B, Q9HAP6
T3 sequence (Q9HAP6 88-185, limits assumed, looked up): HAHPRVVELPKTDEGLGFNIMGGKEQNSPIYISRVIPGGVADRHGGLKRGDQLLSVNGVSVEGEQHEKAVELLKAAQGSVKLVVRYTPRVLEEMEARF

[7] = biological target: LNX1_1, Q8TBB1
Chain of LNX1_1, Q8TBB1 (Q8TBB1 261-371): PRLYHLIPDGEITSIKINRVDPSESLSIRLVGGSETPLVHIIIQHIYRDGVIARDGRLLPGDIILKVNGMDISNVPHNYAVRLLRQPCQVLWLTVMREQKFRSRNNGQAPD

[8] = biological target: NHERF4_4, Q86UT5
Chain of NHERF4_4, Q86UT5 (Q86UT5 464-550): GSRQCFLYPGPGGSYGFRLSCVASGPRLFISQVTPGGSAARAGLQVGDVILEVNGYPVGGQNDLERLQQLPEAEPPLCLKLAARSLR

[9] = biological target: NHERF4_1, Q86UT5-2
Chain of NHERF4_1, Q86UT5-2 (Q86UT5 other isoform, or with tags, fused parts or gaps): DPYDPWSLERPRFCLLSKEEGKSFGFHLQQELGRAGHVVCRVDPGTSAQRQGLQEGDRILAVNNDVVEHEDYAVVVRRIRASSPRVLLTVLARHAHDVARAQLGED

[10] = biological target: T4, PTPN13_1, Q12923
T4 sequence (Q12923 1088-1188, limits assumed, looked up): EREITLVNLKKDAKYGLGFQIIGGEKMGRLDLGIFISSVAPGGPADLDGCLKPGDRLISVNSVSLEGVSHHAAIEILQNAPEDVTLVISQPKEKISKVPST

[11] = biological target: T5, MPP7, Q5T2T1
T5 sequence (Q5T2T1 134-230, limits assumed, looked up): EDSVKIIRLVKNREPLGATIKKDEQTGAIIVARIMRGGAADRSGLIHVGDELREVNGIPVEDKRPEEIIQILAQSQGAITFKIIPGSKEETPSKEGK

[12] = biological target: FRMPD2_2, Q68DX3
Chain of FRMPD2_2, Q68DX3 (Q68DX3 944-1038): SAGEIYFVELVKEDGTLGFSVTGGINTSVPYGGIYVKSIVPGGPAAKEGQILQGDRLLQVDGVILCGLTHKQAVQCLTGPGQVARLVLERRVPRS

[13] = biological target: MAGI1_2, Q96QZ7
Chain of MAGI1_2, Q96QZ7 (Q96QZ7 456-580): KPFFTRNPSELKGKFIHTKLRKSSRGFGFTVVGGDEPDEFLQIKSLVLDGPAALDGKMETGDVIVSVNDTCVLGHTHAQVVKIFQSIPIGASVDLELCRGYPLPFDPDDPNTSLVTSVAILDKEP

[14] = biological target: Inadl_4, Q8NI35
Chain of Inadl_4, Q8NI35 (Q8NI35 547-651): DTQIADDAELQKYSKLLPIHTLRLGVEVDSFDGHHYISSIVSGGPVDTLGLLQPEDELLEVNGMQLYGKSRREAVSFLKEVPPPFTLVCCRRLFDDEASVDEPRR

[15] = biological target: T6, SHANK1, Q9Y566
T6 sequence (Q9Y566 658-767, limits assumed, looked up): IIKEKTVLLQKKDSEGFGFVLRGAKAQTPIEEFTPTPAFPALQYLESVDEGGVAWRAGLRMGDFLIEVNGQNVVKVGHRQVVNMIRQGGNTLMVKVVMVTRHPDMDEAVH

[16] = biological target: T7, GRIP1_7, Q9Y3R0
T7 sequence (Q9Y3R0 999-1096, limits assumed, looked up): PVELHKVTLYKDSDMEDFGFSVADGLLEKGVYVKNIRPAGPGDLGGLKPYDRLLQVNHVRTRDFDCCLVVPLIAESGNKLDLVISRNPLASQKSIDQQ

[17] = biological target: T8, MPP2, Q14168
T8 sequence (Q14168 180-250, limits assumed, looked up): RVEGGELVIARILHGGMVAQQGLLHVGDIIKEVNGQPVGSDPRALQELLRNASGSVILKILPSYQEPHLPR

[18] = biological target: T9, SNTG1, Q9NSN8
T9 sequence (Q9NSN8 52-150, limits assumed, looked up): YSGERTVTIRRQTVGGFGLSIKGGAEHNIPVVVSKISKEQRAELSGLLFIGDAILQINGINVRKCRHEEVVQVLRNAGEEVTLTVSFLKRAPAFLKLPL

[19] = biological target: SNX27, Q96L92
[20] = biological target: T10, SNTA1, Q13424
T10 sequence (Q13424 82-180, limits assumed, looked up): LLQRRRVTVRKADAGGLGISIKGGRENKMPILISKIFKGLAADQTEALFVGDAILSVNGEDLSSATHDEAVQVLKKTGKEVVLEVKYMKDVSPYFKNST

[21] = biological target: PTPN3, P26045
Chain of PTPN3, P26045 (P26045 505-587): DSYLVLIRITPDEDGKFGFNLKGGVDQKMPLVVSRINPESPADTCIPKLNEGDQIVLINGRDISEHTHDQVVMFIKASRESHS

[22] = biological target: T11, RAPGEF6, Q8TEU7
T11 sequence (Q8TEU7 525-625, limits assumed, looked up): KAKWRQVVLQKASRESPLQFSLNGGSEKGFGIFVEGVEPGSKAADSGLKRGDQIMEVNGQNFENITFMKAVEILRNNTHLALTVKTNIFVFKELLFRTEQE

[23] = biological target: DLG5_1, Q8TDM6
Chain of DLG5_1, Q8TDM6 (Q8TDM6 617-713): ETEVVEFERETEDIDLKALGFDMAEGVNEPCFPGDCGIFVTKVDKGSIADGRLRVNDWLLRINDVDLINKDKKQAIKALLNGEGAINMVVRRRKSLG

[24] = biological target: IL16_1, Q14005
Chain of IL16_1, Q14005 (Q14005 210-306): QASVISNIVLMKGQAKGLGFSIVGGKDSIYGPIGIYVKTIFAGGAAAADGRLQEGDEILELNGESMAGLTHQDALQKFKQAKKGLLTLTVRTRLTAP

[25] = biological target: Inadl_6, Q8NI35
Chain of Inadl_6, Q8NI35 (Q8NI35 1058-1167): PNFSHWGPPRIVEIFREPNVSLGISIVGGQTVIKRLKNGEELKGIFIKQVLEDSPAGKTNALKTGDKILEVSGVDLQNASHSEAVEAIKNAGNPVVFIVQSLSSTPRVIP

[26] = biological target: T12, APBA1_2, Q02410
T12 sequence (Q02410 742-832, limits assumed, looked up): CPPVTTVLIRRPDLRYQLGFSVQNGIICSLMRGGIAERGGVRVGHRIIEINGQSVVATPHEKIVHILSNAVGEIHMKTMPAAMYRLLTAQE

[27] = plain residues with an end cap or a label only (N-terminal biotin on a linker: ahx)
[28] = plain residues with an end cap or a label only (N-terminal biotin on a linker: ttds)

pKd [1, 27]: below the threshold
pKd [2, 27]: below the threshold
pKd [3, 27]: 3.51
pKd [4, 27]: below the threshold
pKd [5, 27]: below the threshold
pKd [6, 27]: below the threshold
pKd [7, 27]: below the threshold
pKd [8, 27]: 4.1
pKd [9, 27]: 3.51
pKd [10, 27]: below the threshold
pKd [11, 27]: 5.02
pKd [12, 27]: below the threshold
pKd [13, 27]: below the threshold
pKd [14, 27]: below the threshold
pKd [15, 27]: below the threshold
pKd [16, 27]: 4.14
pKd [17, 27]: below the threshold
pKd [18, 27]: below the threshold
pKd [19, 27]: 3.83
pKd [20, 27]: below the threshold
pKd [21, 27]: 4.55
pKd [22, 27]: below the threshold
pKd [23, 27]: below the threshold
pKd [24, 27]: below the threshold
pKd [25, 27]: 3.86
pKd [26, 27]: 4.47
Binder: VNENQKEYFF [CNTNAP4, Q9C0A0]

pKd [1, 28]: below the threshold
pKd [2, 28]: below the threshold
pKd [3, 28]: below the threshold
pKd [4, 28]: 4.39
pKd [5, 28]: below the threshold
pKd [6, 28]: 3.81
pKd [7, 28]: below the threshold
pKd [8, 28]: below the threshold
pKd [9, 28]: below the threshold
pKd [10, 28]: below the threshold
pKd [11, 28]: below the threshold
pKd [12, 28]: below the threshold
pKd [13, 28]: 4.82
pKd [14, 28]: below the threshold
pKd [15, 28]: below the threshold
pKd [16, 28]: 3.72
pKd [17, 28]: below the threshold
pKd [18, 28]: 4.16
pKd [19, 28]: 5.03
pKd [20, 28]: 4.36
pKd [21, 28]: 4.44
pKd [22, 28]: 3.46
pKd [23, 28]: below the threshold
pKd [24, 28]: below the threshold
pKd [25, 28]: below the threshold
pKd [26, 28]: below the threshold
Binder: KLVIKTETTV [RASSF6, Q6ZTQ3]
